Test results as given in a protein production outcome set (Wang et al. 2014).

Assay: label from the status in PepcDB records

| Sequence | protein production |
| --- | --- |
| MELLLSKVTDAGIDPSSVSGEEAITLWEHIGRHIASTSREKAHCLIISAEYRREIKQLCDSIEELRQALELLSLPEDVEDILSVKASLSERLVEVGDYNSALTEYIASTNIAVEYGFIDEYVLAIIGMGNLCDAYGDHNRALRYYQKIDAIDHAISSRSLRLRYKLYMLACYISLKRVAEASELLGECEELSILVSDKNLAAQTHLYRAKLHRLQEEYSEALLSISSIKYTTGSATTYWLSTMVKIETAYCLNGVGHTSLANLLLESIGKRIKKHSSPILAKRFYNAMSKVSASQGQFQQALSCEKRAFRIESDLIKHIPISELGAAQLRRLSRFELQLKLILSEIENKELKETTKQHKNTVAQLQQDVFTDPLTSLHNRRWLEVKLKDMLLHDTPFALMVIDIDHFKSINDELSHLVGDKAIKSVSQELAAYFKFKGASCVRFGGEEFLVILENSQLERAEMHAENYRERIFKYAWRDILGERGLTVSIGITLHREGENTQRTFYRADKALYRAKANGRNQVCTEL | failed |
| MELLNVLAAAFGAFALGSVWYMVLAEPWMQDAKVPRGPDGRPEGGMTPGIFAASFVLQLIVAGMMRHVFALSGIDSPGAGIVAGIGVGLFFIAPWITLNNLYGMRPLRLSLIDGGYATLACAVMGLILTLF | failed |
| MELQDTIFKRQSVRKFKNQDVSDEDILKMIKAAGAAPSGKNIQNWHFVVIKRRDLMEKIADVITKKQQEILVEMDKVSVDKANRFRKFVKNFTLFYLKAPVLVLVFTKVYNPSGYYELELIDAPKETIDKLFIRNPGMQSLGAAIENFTLSAIELGYGSCWLTSQNYAADEIEAVLEAETGFEKGEYFLGAMLALGVPEDNLKSPSKKPVEEICTFIK | not failed |
| MELRDRIDFLCKTILAIKTAGRLVLGIDGLSRSGKTTLANQLSQTLREQGISVCVFHMDDHIVERAKRYHTGNEEWFEYYYLQWDVEWLTHQLFRQLKASHQLTLPFYDHETDTHSKRTVYLSDSDMIMIEGVFLQRKEWRPFFDFVVYLDCPREIRFARENDQVKQNIQKFINRYWKAEDYYLETEEPIKRADVVFDMTS | not failed |
| MELRPSGDSGSSDVDAEISDGFSPLDTSHRDVADEGSLLRRAEMYQDYMKQVPIPTNRGSLIPFTSWVGLSISMKQLYGQPLHYLTNVLLQRWDQSRFGTDSEEQRLDSIIHPTKAEATIWLVEEIHRLTPSHLHMALLWRSDPMYHSFIDPIFPEK | not failed |
| MELSAVGERVFAAESIIKRRIRKGRIEYLVKWKGWAIKYSTWEPEENILDSRLIAAFEQKERERELYGPKKRGPKPKTFLLKARAQAEALRISDVHFSVKPSASASSPKLHSSAAVHRLKKDIRRCHRMSRRPLPRPDPQGGSPGLRPPISPFSETVRIINRKVKPREPKRNRIILNLKVIDKGAGGGGAGQGAGALARPKVPSRNRVIGKSKKFSESVLRTQIRHMKFGAFALYKPPPAPLVAPSPGKAEASAPGPGLLLAAPAAPYDARSSGSSGCPSPTPQSSDPDDTPPKLLPETVSPSAPSWREPEVLDLSLPPESAATSKRAPPEVTAAAGPAPPTAPEPAGASSEPEAGDWRPEMSPCSNVVVTDVTSNLLTVTIKEFCNPEDFEKVAAGVAGAAGGGGSIGASK | failed |
| MELSRGASAPDPDDVRPLKPCLLRRNHSRDQHGVAASSLEELRSKACELLAIDKSLTPITLVLAEDGTIVDDDDYFLCLPSNTKFVALACNEKWTYNDSDGGTAWVSQESFEADEPDSRAGVKWKNVARQLKEDLSSIILLSEEDLQALIDIPCAELAQELCQSCATVQGLQSTLQQVLDQREEARQSKQLLELYLQALEKEGNILSNQKESKAALSEELDAVDTGVGREMASEVLLRSQILTTLKEKPAPELSLSSQDLESVSKEDPKALAVALSWDIRKAETVQQACTTELALRLQQVQSLHSLRNLSARRSPLPGEPQRPKRAKRDSS | not failed |
| MELTTDIGGRSAAGVDRAPAGATSRTALWTGRVLSGLAIAFLAFDALGKLMRAAPVLEGSQQLGYPLDTVVGIGATLLACVVLYAIPRTAALGAILLTGYLGGAVATHVRVGNPLFSHVLFPTYVGALIWGGLVLRDRRLLAALLRGRARAAEEEA | failed |
| MELWLVRHGETLWNREGRLLGWTDLPLTAEGEAQARRLKGALPSLPAFSSDLLRARRTAELAGFSPRLYPELREIHFGALEGALWETLDPRYKEALLRFQGFHPPGGESLSAFQERVFRFLEGLKAPAVLFTHGGVVRAVLRALGEDGLVPPGSAVAVDWPRRVLVRLALDGEEATG | not failed |
| MENFDEVIKEYQKYLEGKEKTHKINSCKHPCCEEDNLKSVKNYFKVYHKKYIPSIIQKKKKERNEHAPPLLKDIQDKRCTNVFERLNDKQFYTGVQKTKFMELLKNNKNKSSYCYNNIKVFSTMLKKPCNYVVTPGTLGIQKYGIQTGRPKTIFLFNNEKKYDKGVYFLVKSYIKNIKSLCYEITKILQPSIGPTRKIYDQNFSLVRNVNDLINGGKYLCTSGDPPAPIRNLSLHFLT | failed |
| MENGFFVKINYRIYTTFSEKHGIILSIISKKENPMAIYFGTYTKRESKGIYKANFDSETGQLSNLELVTEEPNPTYLAFDKAGHLYSVGAENGLGGIAAFNTDYTLLNHVVSEGAPLCYVAVDEARDLVYGSNFHKGQLLVYKRLADGSLELADVAQHEGSGPHENQASAHVHFSDLTPDKFLVTCDLGCDQVVTYKVSDQGKVEKIATYQAAPGSGPRHIVFHTVAKIAYLICELNSTIEVLIYDGWGQFEHLQTVSTLPEDHTGFNGTAAIRITKDGKFIYGSNRGNDSIAVYKTLADASLELVEIVPTNGKTPRDFTLSPDEKHLIVVHQDSDNATVFKRDAENGCLTELSHDFYVPEAVCVTFL | failed |
| MENHSHANTHTDTRTDDKSTKIVRLLGLIGGALIALVIYYALNSQMPHIVEEIPKLSSLNYKAMPVVAGVAVLMGIWWMTEAIDLPATALLPLVLFSVFSVDQFASVSSSYASPIIFLFMGGFILALSMQKWNLHTRIALSIILLVGTSPRRLILGFMMATGFLSMWVSNTATAVMMLPVGMSVLQLVAKLVGKEDASNSWHQKEEITKAHGGIMSNIVHKGKDITQVIQEKTTIYRTNFSICLMLGIAYAASIGSLGTLIGTPPNALLAGYMKTAFNIEIDFAQWMVFGTPLAFIMLILAWLLLTYVIFPLKIKEIPGGKEVIRVELKKLGRLSQAEISVGIIFILASLGWIFLGVMLKSWGVKIDKIDSVIAMGVSALLFILPANHQGDRLIDWGVAKKLPWDVLLLFGGGLALSAQFSKTGLSLWIGHLVSGFSHLPILFIIVMVTLMVIFLTEITSNTATAAAFLPVIGGVAMGMGYENHQSLLLTIPVALSATCAFMLPVVTPPNAIAYGSGYVKITDMIKAGLWLNLVGVVLISTFSYFLVSLIFN | failed |
| MENKKMNLLLFSGDYDKALASLIIANAAREMEIEVTIFCAFWGLLLLRDPEKASQEDKSLYEQAFSSLTPREAEELPLSKMNLGGIGKKMLLEMMKEEKAPKLSDLLSGARKKEVKFYACQLSVEIMGFKKEELFPEVQIMDVKEYLKNALESDLQLFI | not failed |
| MENLLARLLFAQWFPGLIQLKNYQKEWLVNDFRAAFSVVAVALPVAIAYAQLTGVSAIVGLYSCVLPMLVYALMGTSRQLIVGPDAATCAVIAAVVTPIAAGDPTKHWQLVMTMTAMTGIWCVLASRFKLGIFADFLSRPILLGLLNGVALTIIVGQFAKVVGLKYEQRYLLERLWEAPQRLAELHWPTVALSVATVVVYLVTKRYRPTWPAAMLAILVTTASVWLLHLQEMDVAVVGLTQGGFPQFQAPQFELGEVRELVVPALNLAIVSFVSMMLTARSFAAKNGYDIDANKEFQALGFANIASAFSQGFAISGADSRTAVNDANGGKSQLVSIVAAITIAIIAVFIYEPLQFIPIASLGVVLIIASLSLLDLKAIWILKTRDKDAFYLAIITFISVLVIGVIPGITLAVLLGLFQFLRIVMRPSDQLLGLDEKGTIRTIDETGKASPIPGMVIYRFNSPLTYFNAPYFKRRLLEHAEQNKDVSCVVVDAVSSFTHLDLSVMATLADIHEVLKKRGIRLVLAGRKRRLRQWCELTGISTSEGGILLRADMYLAIKLSGSYLSAVGEGIVPTVQKEPDLEQPPKPIPEVA | failed |
| MENPDSAFLLFRNAPRLPLATMHTPLCGDSHQPDFAFRKPARDALLRPWNGRNHRCGLQDGREICQGQLPAHQKSYWSDCAALPRLFRAYGGAVVRGFLIVGNKAFTQPFSLNDLPGAGRMDVLCRCTSQALFISHGIRRDVEVYLLLLGPPSPPKSILIKGDEVRRMSPDERNVAGHIKKALAVECGKSWKKVHSGVYVSRKGLEELIEELSEKYSIIYLKEDGVDISNAQLPPNPLFVIGDHEGLTEEQEKVVERYAALKLSLSPLSLLAEQCVVIAHHHLDRLQF | failed |
| MENRKLAVLIDADNAQSSLIAELLAEVAKYGTAIVKRAYGDWTTTQLKGWKEVLHQYAISPIQQFAYTKGKNSTDSALIIDAMDLLYTGNFDGFCLVSSDSDFTRLATRLREGGLTVIGLGEQSKTPRPFIAACDKFVFTEILRPAPPAKPKPETAATADKPKARSSRTRAKAAPHKEKHPLQDMFTSAIEAVARDSGWAELSAVGSYLAKNDPSFDPRNWGHGRLSQMVKKLDFLTVQESRNGSKLHSEIRLRHDGEAAVAEPAAPVETPQPSPSEEAAPPPRKKRSPRKKISPAGLEHHHHHH | failed |
| MENSGAYTFETIAREWHESNKRWSEDHRSRVLRYLELYIFPHIGSSDIRQLKTSHLLAPIKEVDTSGKHDVAQRLQQRVTAIMRYAVQNDYIDSNPASDMAGALSTTKARHYPLEHHHHHH | not failed |
| MENTKKSPTYVYALGGLEEIGKNTYVVEHEDEIILIDAGIKFANASLPGFDGTVANFDYLIKNNHKIHSLVVTHGHEDHIGGIPHILRHVKIKTIYAPTLAAKLIERRLSEYKDIKPPRIIVFEDESMYKTKYFEVDFYRVCHSIPDSFGICVKTPNGYIVTTGDFRFDFATAGDETNLAKISQISNRGISVLMCESTSAEIPGFSESERYVIDNIRDYMVNIKGRTFISTFASNLGRVEEIIAIAVGLNKKICIIGKSMEANIKTSRKLGYLNVPESSFITHKELPFYKDHEIVVILTGSQGEKMAALNVMANNNHSKITLKPSDTIILSSNPIPGNYAQVEAMVNKLYKLGLTVYENSPNKKIHASGHATRSEHQLMIKAINPSYLFPIHGEYKMFRALKQNAVDQGFDKDHVIIAPNGQKLQLLDGVLSHTNIYVDAEPKFINGYEISSKISKLLSERVVLSSDGILNLVLNADFKKAKLNSAVSISTRGCFFAKESTNLINKISNVAKSSLEEALAKKEFDEKKLKEIVSGNVKSIVWKWRKKNPIINVTIINNDLVEQFRKDNNYVEFIKQAEVEEIEQEVDIDDLISNGL | failed |
| MENVKKCKNFLSTLIKLASSGKQSTETAANVKELVQNLLDGKIEAEDFTSRLYRELNSSPQPYLVPFLKRSLPALRQLTPDSAAFI | failed |
| MEPANMTVAEYLNYWLDTYPKNNVAPSTYRRYTEFAAHIKTHIGGIMMPKLKPAHIQSFYSSLLEKNLSKSTVLKIHRMLHLALKHAVNWQIIISNPTDAVTLEHHHHHH | failed |
| MEPISARSMISAAATEAVVASGDGAPRVERRKRLSPAALAVANQKVPPAFSPIVIAGSVRLADFLVIAAVGIALYFALVVRRDGFAWEYIAAILGTTATAVVAFQAADLYEVQLFRGTLKQMTRIISTWSIVFLLFIGASFFAKLGGEVSRLWLGSFFFAGLALLIIERLSVRALVRRWASQGRLDRRTVIVGADANGAKLIEALKAEHADASDIRILGVFDDRNDARSQSTCAGVPKLGKVDDIPEFARRTRVDLVLFALPISAETRILDMLKKLWVLPVDIRLSAHTNKLRFRPRAYSYVGKVPTLDVFEAPITDWDQVIKQVFDRVVGGFILLLAAPVMALVALAIKLDSPGPVLFRQKRFGFNNERIDVLKFRSMYHDQADPTASKVVTRNDPRVTRVGRFIRRTSLDELPQLFNVVFKGNLSLVGPRPHAVQGKLQSQLFDEAVDGYFARHRVKPGITGWAQINGWRGEIDNEEKIQKRVEFDLYYIENWSVLFDLYILLRTPWALLKGENAY | failed |
